From US20230051715A1 (MABWELL THERAPEUTICS, published 2023) come the findings set out here.

In assay [1] the target is T1, human C1s mutant M8 (E351A) (human, UniProt P09871 16-688).
T1 construct: The entry is the mutant itself
T1 sequence: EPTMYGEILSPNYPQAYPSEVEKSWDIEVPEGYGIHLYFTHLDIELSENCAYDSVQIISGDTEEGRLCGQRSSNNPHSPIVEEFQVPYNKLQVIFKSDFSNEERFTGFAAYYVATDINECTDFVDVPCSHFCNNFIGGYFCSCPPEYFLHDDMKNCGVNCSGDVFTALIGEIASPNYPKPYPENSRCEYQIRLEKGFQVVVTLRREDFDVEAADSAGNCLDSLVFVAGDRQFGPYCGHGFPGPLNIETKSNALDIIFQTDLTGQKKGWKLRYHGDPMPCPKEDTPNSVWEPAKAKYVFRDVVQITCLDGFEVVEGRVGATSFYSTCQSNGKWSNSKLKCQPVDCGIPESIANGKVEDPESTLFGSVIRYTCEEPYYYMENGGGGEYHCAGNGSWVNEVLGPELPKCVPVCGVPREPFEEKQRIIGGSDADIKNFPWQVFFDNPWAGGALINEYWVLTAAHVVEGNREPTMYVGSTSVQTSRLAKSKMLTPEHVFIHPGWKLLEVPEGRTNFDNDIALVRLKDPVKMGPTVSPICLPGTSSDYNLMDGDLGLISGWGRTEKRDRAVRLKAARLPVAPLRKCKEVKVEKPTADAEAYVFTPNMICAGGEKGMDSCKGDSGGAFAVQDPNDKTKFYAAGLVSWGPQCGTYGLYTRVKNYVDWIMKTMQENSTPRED
The experiment in a line: ELISA, plate coated with human C1s mutant M8: E351A, OD450nm. The procedure:
(§1) ELISA was carried out by first coating 96-well plates with 200 ng/well of full-length or truncated C1s proteins overnight. The next morning, plates were blocked with SuperBlock T20 blocking buffer (Thermo Scientific 37536) for 1 h with gentle shaking. Then, various concentrations of anti-C1s antibodies diluted in SuperBlock T20 blocking buffer were added to the plates and incubated for 1 h with gentle shaking. Mouse IgG (Sigma-Aldrich 15381) and human IgG1 (BioXCell BP0297) were used as negative controls. The plates were washed before incubating with HRP conjugated secondary antibodies diluted in SuperBlock T20 blocking buffer (goat anti-mouse IgG (H+L) cross-adsorbed secondary antibody HRP (Invitrogen G-21040) or goat anti-human IgG antibody, HRP conjugate (Millipore AP309P)) for 1 h with gentle shaking. At last, the plates were washed and color developed with ELISA liquid HRP substrate (Sigma-Aldrich), followed by stopping the reaction with addition of 1M H₂SO₄ in the same volume as the ELISA liquid substrate. Bound antibody was measured by absorbance at OD₄₅₀ₙₘ.
(§2) Binding of anti-C1s antibodies to mutants M1-M20 of human C1s was measured by ELISA as described in Example 4, and results are shown in FIGS. 6B-6U. All anti-C1s humanized variants including hz2-7(H1L2), hz2-8(H1L2 G80A) and hz2-8(H1L2 G80A/T82A) maintained strong binding properties to the majority (16 out of 20) of C1s mutants including M1 (FIG. 6B), M2 (FIG. 6C), M3 (FIG. 6D). M4 (FIG. 6E), M7 (FIG. 6H), M8 (FIG. 6I), M10 (FIG. 6K), M11 (FIG. 6L), M12 (FIG. 6M), M13 (FIG. 6N), M15 (FIG. 6P), M16 (FIG. 6Q), M17 (FIG. 6R), M18 (FIG. 6S), M19 (FIG. 6T) and M20 (FIG. 6U).
(In general: In an ELISA, binding on a coated surface is turned into a signal by an enzyme label.)

Assay [2] deals with T2, human C1s mutant M18 (V288T) (human, UniProt P09871 16-688).
T2 construct: The entry is the mutant itself
T2 sequence: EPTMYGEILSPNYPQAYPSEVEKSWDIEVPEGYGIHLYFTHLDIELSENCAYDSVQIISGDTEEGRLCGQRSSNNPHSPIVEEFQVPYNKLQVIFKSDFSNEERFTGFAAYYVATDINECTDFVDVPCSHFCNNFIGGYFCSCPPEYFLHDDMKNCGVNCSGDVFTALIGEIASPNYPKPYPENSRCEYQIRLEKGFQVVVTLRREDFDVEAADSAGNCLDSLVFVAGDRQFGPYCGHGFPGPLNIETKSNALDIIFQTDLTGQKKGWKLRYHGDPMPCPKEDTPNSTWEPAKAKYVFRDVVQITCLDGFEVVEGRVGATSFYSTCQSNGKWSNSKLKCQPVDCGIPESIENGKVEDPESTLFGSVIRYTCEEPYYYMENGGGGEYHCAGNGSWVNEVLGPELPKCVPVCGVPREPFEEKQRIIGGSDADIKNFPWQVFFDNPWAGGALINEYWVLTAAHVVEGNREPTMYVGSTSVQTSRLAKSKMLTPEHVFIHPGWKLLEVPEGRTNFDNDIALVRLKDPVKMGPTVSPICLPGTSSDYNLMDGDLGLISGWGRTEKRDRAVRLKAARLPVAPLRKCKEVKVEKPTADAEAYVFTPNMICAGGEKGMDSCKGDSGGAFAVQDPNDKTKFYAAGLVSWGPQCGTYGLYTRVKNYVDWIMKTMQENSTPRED
The experiment in a line: ELISA, plate coated with human C1s mutant M18: V288T, OD450nm. The procedure:
as §1, §2

B1: Anti-C1s antibody hz2-8 (H1L2 G80A) (antibody, V domains shown)
VH: QVQLVQSGAEVKKPGASVKVSCKASGFNIKEYYMHWVRQAPEQGLEWMGWIDPENADTIYAQKFQGRVTITADTSTNTAYMELSSLRSEDTAVYYCARSRLFFAYWGQGTLVTVSS
VL: DIQMTQSPKSLSASVGDRVTITCRASQDVRTALDWYQQKPGQSPKLLIYSASYRYSGVPSRFSGSGSGTDFTLTISSLQPEDFATYYCQQQYTTPYTFGQGTKLEIKR
notes: Humanized variant with G80A in HC CDR2 (already in the entry), human IgG1 / kappa
With B1, the results for the EC50 in assay [1] and in assay [2] were 10 ng/mL and 3 ng/mL, respectively.

B2: Anti-C1s antibody hz2-8 (H1L2 G80A/T82A) (antibody, V domains shown)
VH: QVQLVQSGAEVKKPGASVKVSCKASGFNIKEYYMHWVRQAPEQGLEWMGWIDPENADAIYAQKFQGRVTITADTSTNTAYMELSSLRSEDTAVYYCARSRLFFAYWGQGTLVTVSS
VL: DIQMTQSPKSLSASVGDRVTITCRASQDVRTALDWYQQKPGQSPKLLIYSASYRYSGVPSRFSGSGSGTDFTLTISSLQPEDFATYYCQQQYTTPYTFGQGTKLEIKR
notes: Humanized variant with G80A and T82A in HC CDR2 (already in the entry), human IgG1 / kappa
Take B2: the figures for the EC50 in assay [1] and in assay [2] were 11 ng/mL and 4 ng/mL, respectively.

B3: Anti-C1s antibody hz2-7(H1L2) (antibody, V domains shown)
VH: EVQLLESGGGLVQPGGSLRLSCAASGFTFSNYFMNWVRQAPGKGLEWVSEIRLKFTNYATHYADSVKGRFTISRDDSKSTLYLQMNSLRAEDTAVYYCTRDYGSRNGYFDYWGQGTLVTVSS
VL: DIVMTQTPLSLPVTPGEPASISCRSSKSLLHSNGNTFLYWFLQKPGQSPQLLIYRMSNLASGVPDRFSGSGSGTDFTLKISRVEAEDVGVYYCMQHLEYPYTFGGGTKLEIKR
notes: Humanized, human IgG1 / kappa; also called hz2-7(1L2)
With B3, the EC50 (commonly the concentration needed to bring the measured effect to its halfway point) in assay [1] stood at 16 ng/mL; in assay [2] it was 5 ng/mL.
